Literature values in publication PMC3567247.
Where two headings read alike, the source gives them in different places. Blank lines part the entries; values can stand above or below the substance they belong to.

How the values were obtained:
BCMA (Homo sapiens) [1] = target: BCMA (Homo sapiens) (UniProt Q02223); experiment: surface plasmon resonance
BR3 (Homo sapiens) [2] = target: BR3 (Homo sapiens) (UniProt Q96RJ3); experiment: surface plasmon resonance
TACI (Homo sapiens) = TACI (Homo sapiens) (UniProt O14836)
Chain of TACI (Homo sapiens) (O14836 whole entry): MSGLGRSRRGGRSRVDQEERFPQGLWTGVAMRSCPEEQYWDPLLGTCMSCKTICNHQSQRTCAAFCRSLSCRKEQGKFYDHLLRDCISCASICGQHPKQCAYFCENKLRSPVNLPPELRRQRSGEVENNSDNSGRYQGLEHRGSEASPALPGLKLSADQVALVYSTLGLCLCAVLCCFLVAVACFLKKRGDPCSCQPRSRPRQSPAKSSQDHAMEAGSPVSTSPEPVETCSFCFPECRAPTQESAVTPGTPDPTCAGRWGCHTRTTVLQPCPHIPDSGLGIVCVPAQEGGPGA

BCMA (Homo sapiens) [3] = target: BCMA (Homo sapiens) (UniProt Q02223)
BR3 (Homo sapiens) [4] = target: BR3 (Homo sapiens) (UniProt Q96RJ3)
[5] = target: Barstar (Bacillus amyloliquefaciens) (UniProt P11540)
Chain of Barstar (Bacillus amyloliquefaciens) (P11540 2-90): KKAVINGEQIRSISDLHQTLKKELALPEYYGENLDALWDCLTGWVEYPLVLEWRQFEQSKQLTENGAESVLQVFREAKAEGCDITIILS

CD40L (Homo sapiens) = CD40L (Homo sapiens) (UniProt P29965)
Chain of CD40L (Homo sapiens) (P29965 113-261): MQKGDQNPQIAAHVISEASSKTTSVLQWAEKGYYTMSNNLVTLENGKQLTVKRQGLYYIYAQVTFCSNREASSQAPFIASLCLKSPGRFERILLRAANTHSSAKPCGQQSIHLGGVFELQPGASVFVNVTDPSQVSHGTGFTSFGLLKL

CD40 (Homo sapiens) = CD40 (Homo sapiens) (UniProt P25942)
Chain of CD40 (Homo sapiens) (P25942 21-277): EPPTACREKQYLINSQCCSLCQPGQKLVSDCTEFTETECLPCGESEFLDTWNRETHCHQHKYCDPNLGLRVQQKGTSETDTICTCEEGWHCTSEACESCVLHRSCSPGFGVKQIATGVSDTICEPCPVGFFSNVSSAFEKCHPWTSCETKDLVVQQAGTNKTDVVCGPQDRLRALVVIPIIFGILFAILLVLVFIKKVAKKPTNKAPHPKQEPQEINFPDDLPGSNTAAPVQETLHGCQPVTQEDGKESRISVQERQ

Im9 (Escherichia coli) = Im9 (Escherichia coli) (UniProt P13479)
Chain of Im9 (Escherichia coli) (P13479 whole entry): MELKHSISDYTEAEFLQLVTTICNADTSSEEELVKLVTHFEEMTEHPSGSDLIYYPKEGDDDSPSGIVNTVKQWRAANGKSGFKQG

[6] = target: Ribonuclease Inhibitor (Sus scrofa) (UniProt P10775)
Chain of Ribonuclease Inhibitor (Sus scrofa) (P10775 whole entry): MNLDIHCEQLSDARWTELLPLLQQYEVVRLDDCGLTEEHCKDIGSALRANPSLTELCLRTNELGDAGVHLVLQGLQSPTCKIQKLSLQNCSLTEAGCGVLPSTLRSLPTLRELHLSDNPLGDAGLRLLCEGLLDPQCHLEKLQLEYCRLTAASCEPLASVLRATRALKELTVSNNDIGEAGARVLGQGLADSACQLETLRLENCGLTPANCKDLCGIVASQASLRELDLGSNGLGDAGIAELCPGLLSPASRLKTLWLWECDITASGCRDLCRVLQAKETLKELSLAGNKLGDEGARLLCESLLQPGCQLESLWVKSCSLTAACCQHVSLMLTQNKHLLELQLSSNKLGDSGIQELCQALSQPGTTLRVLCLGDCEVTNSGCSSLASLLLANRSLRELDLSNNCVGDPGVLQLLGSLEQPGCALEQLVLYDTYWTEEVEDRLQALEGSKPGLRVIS

Ribonuclease Inhibitor = Ribonuclease Inhibitor (UniProt P13489)
Chain of Ribonuclease Inhibitor (P13489 2-461): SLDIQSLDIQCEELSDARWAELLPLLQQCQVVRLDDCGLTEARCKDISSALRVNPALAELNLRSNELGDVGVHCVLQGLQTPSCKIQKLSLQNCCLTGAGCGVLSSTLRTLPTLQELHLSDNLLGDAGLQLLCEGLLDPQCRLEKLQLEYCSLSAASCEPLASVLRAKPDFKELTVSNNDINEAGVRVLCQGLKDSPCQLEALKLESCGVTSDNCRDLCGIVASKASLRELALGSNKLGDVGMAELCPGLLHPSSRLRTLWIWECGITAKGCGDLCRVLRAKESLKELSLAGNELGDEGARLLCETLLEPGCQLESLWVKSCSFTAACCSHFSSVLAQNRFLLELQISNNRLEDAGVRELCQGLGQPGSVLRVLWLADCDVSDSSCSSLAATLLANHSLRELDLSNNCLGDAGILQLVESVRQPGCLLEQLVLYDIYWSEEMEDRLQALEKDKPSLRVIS

BPTI (Bos taurus) = BPTI (Bos taurus) (UniProt P00974)

Chain of APRIL (O75888 105-250): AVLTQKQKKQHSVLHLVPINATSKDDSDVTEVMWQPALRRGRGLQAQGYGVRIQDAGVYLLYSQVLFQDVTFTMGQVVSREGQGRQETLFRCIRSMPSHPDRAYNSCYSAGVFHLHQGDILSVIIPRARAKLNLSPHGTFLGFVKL
Chain of BCMA (Homo sapiens) (Q02223 whole entry): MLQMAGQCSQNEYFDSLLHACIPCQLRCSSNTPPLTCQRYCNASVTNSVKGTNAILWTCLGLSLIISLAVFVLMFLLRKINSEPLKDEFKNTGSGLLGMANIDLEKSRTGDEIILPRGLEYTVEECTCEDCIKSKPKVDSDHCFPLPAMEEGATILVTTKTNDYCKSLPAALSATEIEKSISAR
Chain of Ribonuclease A (P61823 27-150): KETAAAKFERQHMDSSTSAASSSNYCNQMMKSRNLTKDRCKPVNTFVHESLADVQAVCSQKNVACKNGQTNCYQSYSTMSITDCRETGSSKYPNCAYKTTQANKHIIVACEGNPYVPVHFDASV
Chain of BR3 (Homo sapiens) (Q96RJ3 whole entry): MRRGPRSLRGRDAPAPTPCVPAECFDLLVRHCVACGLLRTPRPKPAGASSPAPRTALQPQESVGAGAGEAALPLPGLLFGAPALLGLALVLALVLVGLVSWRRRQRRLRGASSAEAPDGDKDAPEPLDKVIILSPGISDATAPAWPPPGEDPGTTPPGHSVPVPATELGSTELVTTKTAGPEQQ
Chain of Barnase (P00648 48-157): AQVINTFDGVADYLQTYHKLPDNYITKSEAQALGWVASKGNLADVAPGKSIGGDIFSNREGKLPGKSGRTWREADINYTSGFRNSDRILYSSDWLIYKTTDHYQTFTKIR
Chain of Colicin E9 nuclease (P09883 449-582): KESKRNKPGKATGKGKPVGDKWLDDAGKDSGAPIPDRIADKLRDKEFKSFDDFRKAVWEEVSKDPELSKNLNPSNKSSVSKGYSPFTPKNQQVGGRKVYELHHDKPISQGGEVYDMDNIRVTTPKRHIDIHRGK
Chain of CD40 (P25942 21-277): as the sequence (P25942 21-277) above
Chain of CD40L (P29965 113-261): as the sequence (P29965 113-261) above

Kd (BCMA (Homo sapiens) [1]): 15 nM | Kd (BR3 (Homo sapiens) [2]): > 3000 nM
Substance: APRIL (from UniProt O75888)

Kd (CD40L (Homo sapiens)): 13000 nM
Substance: CD40 (from UniProt P25942)

Kd [6]: 0.059 pM | Kd (Ribonuclease Inhibitor): 0.059 pM
Substance: Ribonuclease A (from UniProt P61823)

Second part, the substance before the results:

Substance: BAFF (from UniProt Q9Y275)
Kd (TACI (Homo sapiens)): 13 nM | Kd (BCMA (Homo sapiens) [3]): 1500 nM | Kd (BR3 (Homo sapiens) [4]): 15 nM

Substance: Barnase (from UniProt P00648)
Kd [5]: 0.0002 nM

Substance: CD40L (from UniProt P29965)
Kd (CD40 (Homo sapiens)): 13000 nM

Substance: Colicin E9 nuclease (from UniProt P09883)
Kd (Im9 (Escherichia coli)): 0.024 pM

Substance: trypsinogen (from UniProt P00760)
Kd (BPTI (Bos taurus)): 0.06 pM
